# Reference: US11827699 (dated 2023)
# Where a chain is given by its changes, count along the chain named. Where two headings read alike, the source gives them in different places.
# B1: IL6R-BP474 (antibody)
# chain 1: QVQLQESGPGLVKPSETLSLTCAVSGHSISHDHAWSWVRQPPGEGLEWIGFISYSGITNYNPSLQGRVTISRDNSKNTLYLQMNSLRAEDTAVYYCARSLARTTAMDYWGEGTLVTVSSASTKGPSVFPLAPSSKSTSGGTAALGCLVKDYFPEPVTVSWNSGALTSGVHTFPAVLQSSGLYSLSSVVTVPSSSLGTQTYICNVNHKPSNTKVDKKVEPKSCDKTHTCPPCPAPDLLGDDSVFLFPPKPKDTLMISRTPEVTCVVVDVSDEDGEVKFNWYVDGVEVHNAKTKPREEQDNSTYRVVSVLTVLHQDWLNGKEYKCKVSNKALPSSIEKTISKAKGQPREPQVYTLPPSRDELTKNQVSLTCLVKGFYPSDIAVEWESNGQPENNYKTTPPVLDSDGSFFLYSKLTVDKSRWQQGNVFSCSVMHEALHNHYTQESLSLSP
# chain 2: not shown
# B2: IL6R-BP475 (antibody)
# chain 1: B1 chain 1 with A329G, S333P
# chain 2: not shown
# B3: IL6R-BP509 (antibody)
# chain 1: B1 chain 1 with V266I, S269A, D270E, E274D, S332A, S333P
# chain 2: not shown
# B4: IL6R-BP520 (antibody)
# chain 1: B1 chain 1 with D270E, E274M, D298Y, S332A, S333P
# chain 2: not shown
# B5: IL6R-BP500 (antibody)
# chain 1: B1 chain 1 with D235E, V266I, S269A, D270E, S332A, S333P
# chain 2: not shown
# B6: IL6R-BP246 (antibody)
# chain 1: B1 chain 1 with S269Q, K328A, S332R, S333P
# chain 2: not shown
# B7: IL6R-BP497 (antibody)
# chain 1: B1 chain 1 with V266I, S269A, D270E, D298Y, A329G, S332R, S333P
# chain 2: not shown
# B8: IL6R-BP239 (antibody)
# chain 1: B1 chain 1 with L236Y, S269Q, K328A, S332R, S333P
# chain 2: not shown
# B9: IL6R-BP151 (antibody)
# chain 1: B1 chain 1 with L236Y, D270H, G273P, D298Y, K328A, S332K, S333P
# chain 2: not shown
# B10: IL6R-BP508 (antibody)
# chain 1: B1 chain 1 with V266I, S269A, D270E, E274P, S332A, S333P
# chain 2: not shown
# B11: IL6R-BP471 (antibody)
# chain 1: B1 chain 1 with S332R
# chain 2: not shown
# B12: IL6R-BP517 (antibody)
# chain 1: B1 chain 1 with D270E, E274I, D298Y, S332A, S333P
# chain 2: not shown
# B13: IL6R-BP487 (antibody)
# chain 1: B1 chain 1 with V266I, S269A, D270E, D298Y, S332R, S333P, P398M
# chain 2: not shown
# B14: IL6R-BP348 (antibody)
# chain 1: B1 chain 1 with S269A, D270E, D298Y, S332A, S333P
# chain 2: not shown
# B15: IL6R-BP152 (antibody)
# chain 1: B1 chain 1 with L236Y, D270H, G273P, K328A, S332K, S333P
# chain 2: not shown
# B16: IL6R-BP233 (antibody)
# chain 1: B1 chain 1 with D235E, L236Y, D270H, D298Y, S332K, S333P
# chain 2: not shown
# B17: IL6R-BP243 (antibody)
# chain 1: B1 chain 1 with L236Y, D298Y, S332R, S333P
# chain 2: not shown
# B18: IL6R-BP228 (antibody)
# chain 1: B1 chain 1 with D235E, L236Y, S269Q, D298Y, K328D, S332R, S333P
# chain 2: not shown
# B19: IL6R-BP492 (antibody)
# chain 1: B1 chain 1 with D235E, D239G, V266I, S269A, D270E, D298Y, S332A, S333P
# chain 2: not shown
# B20: IL6R-BP249 (antibody)
# chain 1: B1 chain 1 with L236Y, S332R, S333P
# chain 2: not shown
# B21: IL6R-BP220 (antibody)
# chain 1: B1 chain 1 with S332K, S333P
# chain 2: not shown
# B22: IL6R-BP237 (antibody)
# chain 1: B1 chain 1 with L236Y, S269Q, K328A, S332K, S333P
# chain 2: not shown
# B23: IL6R-BP514 (antibody)
# chain 1: B1 chain 1 with D270E, E274F, D298Y, S332A, S333P
# chain 2: not shown
# B24: IL6R-BP150 (antibody)
# chain 1: B1 chain 1 with D235E, L236Y, D270H, G273P, D298Y, K328A, S332K, S333P
# chain 2: not shown
# B25: VH3/L(WT)-mIgG1 (antibody)
# chain 1: QVQLQESGPGLVKPSETLSLTCAVSGHSISHDHAWSWVRQPPGEGLEWIGFISYSGITNYNPSLQGRVTISRDNSKNTLYLQMNSLRAEDTAVYYCARSLARTTAMDYWGEGTLVTVSSAKTTPPSVYPLAPGSAAQTNSMVTLGCLVKGYFPEPVTVTWNSGSLSSGVHTFPAVLQSDLYTLSSSVTVPSSTWPSETVTCNVAHPASSTKVDKKIVPRDCGCKPCICTVPEVSSVFIFPPKPKDVLTITLTPKVTCVVVDISKDDPEVQFSWFVDDVEVHTAQTQPREEQFNSTFRSVSELPIMHQDWLNGKEFKCRVNSAAFPAPIEKTISKTKGRPKAPQVYTIPPPKEQMAKDKVSLTCMITDFFPEDITVEWQWNGQPAENYKNTQPIMDTDGSYFVYSKLNVQKSNWEAGNTFTCSVLHEGLHNHHTEKSLSHSPGK
# chain 2: not shown
# B26: VH3/L(WT)-mIgG1-mF46 (antibody)
# chain 1: B25 chain 1 with S235D, A323D
# chain 2: not shown
# B27: VH3/L(WT)-mIgG1-mF44 (antibody)
# chain 1: B25 chain 1 with A323D
# chain 2: not shown
# What was measured:
# Assay in all cases: SPR
# human FcγRIIa R131 [1] = molecular target: T1, human FcγRIIa R131 (human, UniProt P12318)
# T1 chain: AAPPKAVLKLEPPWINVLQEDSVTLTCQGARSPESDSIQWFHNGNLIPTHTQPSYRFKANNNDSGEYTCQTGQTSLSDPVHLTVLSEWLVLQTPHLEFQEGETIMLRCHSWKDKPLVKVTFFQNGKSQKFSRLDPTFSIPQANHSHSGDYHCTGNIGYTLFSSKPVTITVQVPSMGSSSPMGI
# human FcγRIIa R131 [2] = molecular target: T1, human FcγRIIa R131
# human FcγRIIb [3] = molecular target: T2, human FcγRIIb (human, UniProt P31994)
# T2 chain: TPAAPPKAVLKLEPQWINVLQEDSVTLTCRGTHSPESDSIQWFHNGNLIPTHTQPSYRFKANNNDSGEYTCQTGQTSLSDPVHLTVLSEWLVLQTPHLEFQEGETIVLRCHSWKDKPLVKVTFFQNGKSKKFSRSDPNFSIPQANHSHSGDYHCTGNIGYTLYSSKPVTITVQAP
# human FcγRIIa H131 = molecular target: T3, human FcγRIIa H131 (human, UniProt P12318)
# T3 chain: T1 chain with R132H
# human FcγRIa [4] = molecular target: T4, human FcγRIa (human, UniProt P12314)
# T4 chain: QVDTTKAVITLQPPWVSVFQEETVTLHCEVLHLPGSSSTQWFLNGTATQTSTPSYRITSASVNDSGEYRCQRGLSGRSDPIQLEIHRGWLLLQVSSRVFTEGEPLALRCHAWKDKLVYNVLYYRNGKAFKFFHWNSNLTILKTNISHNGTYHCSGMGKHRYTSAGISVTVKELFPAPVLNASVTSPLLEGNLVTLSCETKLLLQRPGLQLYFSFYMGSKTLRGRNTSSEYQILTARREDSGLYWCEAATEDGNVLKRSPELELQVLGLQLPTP
# human FcγRIIIa V158 = human FcγRIIIa V158 (human, UniProt P08637)
# Chain of human FcγRIIIa V158 (P08637 17-208 F176V): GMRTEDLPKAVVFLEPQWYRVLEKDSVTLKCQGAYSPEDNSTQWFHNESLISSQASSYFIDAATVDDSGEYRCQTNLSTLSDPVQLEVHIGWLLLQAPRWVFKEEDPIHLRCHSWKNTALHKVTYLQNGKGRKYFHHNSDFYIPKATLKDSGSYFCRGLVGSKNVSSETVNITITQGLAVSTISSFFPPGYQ
# human FcγRIIa R131 [5] = molecular target: T1, human FcγRIIa R131
# human FcγRIa [6] = molecular target: T4, human FcγRIa
# human FcγRIIb [7] = molecular target: T2, human FcγRIIb
# human FcγRIIa R131 [8] = molecular target: T1, human FcγRIIa R131
# human FcγRIa [9] = molecular target: T4, human FcγRIa
# human FcγRIIb [10] = molecular target: T2, human FcγRIIb
# mouse FcγRIV = molecular target: T5, mouse FcγRIV (mouse, UniProt A0A0B4J1G0)
# T5 chain: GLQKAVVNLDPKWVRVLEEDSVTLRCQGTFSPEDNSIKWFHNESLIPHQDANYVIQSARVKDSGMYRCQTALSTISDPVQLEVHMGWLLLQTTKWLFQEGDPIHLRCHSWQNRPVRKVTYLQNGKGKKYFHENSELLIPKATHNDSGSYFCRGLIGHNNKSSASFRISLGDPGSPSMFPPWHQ
# mouse FcγRI = molecular target: T6, mouse FcγRI (mouse, UniProt P26151)
# T6 chain: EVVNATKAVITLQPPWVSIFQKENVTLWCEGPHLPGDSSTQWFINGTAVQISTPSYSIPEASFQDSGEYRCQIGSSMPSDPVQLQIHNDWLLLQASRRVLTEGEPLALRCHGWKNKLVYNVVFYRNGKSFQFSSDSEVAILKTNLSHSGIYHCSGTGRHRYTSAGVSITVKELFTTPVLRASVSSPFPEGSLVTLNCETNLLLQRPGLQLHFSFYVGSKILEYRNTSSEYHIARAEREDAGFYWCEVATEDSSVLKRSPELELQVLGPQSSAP
binder,measurement,setting,value
B1,Kd,human FcγRIIa R131 [1],3000 nM
B2,Kd,human FcγRIIa R131 [1],1000 nM
B3,Kd,human FcγRIIa R131 [2],520 nM
same,Kd,human FcγRIIb [3],18 nM
same,Kd,human FcγRIIa H131,7900 nM
same,Kd,human FcγRIa [4],1.1 nM
same,Kd,human FcγRIIIa V158,23000 nM
B4,Kd,human FcγRIIa R131 [5],3000 nM
B5,Kd,human FcγRIIa R131 [2],720 nM
same,Kd,human FcγRIIb [3],24 nM
same,Kd,human FcγRIIa H131,25000 nM
same,Kd,human FcγRIa [4],2.3 nM
same,Kd,human FcγRIIIa V158,39000 nM
B6,Kd,human FcγRIa [6],8 nM
B7,Kd,human FcγRIIa R131 [2],85 nM
same,Kd,human FcγRIIb [3],4.1 nM
same,Kd,human FcγRIIa H131,960 nM
same,Kd,human FcγRIa [4],2.1 nM
same,Kd,human FcγRIIIa V158,28000 nM
B8,Kd,human FcγRIIb [7],60 nM
B9,Kd,human FcγRIIa R131 [8],670 nM
same,Kd,human FcγRIa [9],84 nM
same,Kd,human FcγRIIb [10],40 nM
B10,Kd,human FcγRIIa R131 [2],540 nM
same,Kd,human FcγRIIb [3],21 nM
same,Kd,human FcγRIIa H131,20000 nM
same,Kd,human FcγRIa [4],1.4 nM
same,Kd,human FcγRIIIa V158,61000 nM
B11,Kd,human FcγRIIa R131 [1],800 nM
B12,Kd,human FcγRIIa R131 [5],2100 nM
B13,Kd,human FcγRIIa R131 [2],39 nM
same,Kd,human FcγRIIb [3],1.2 nM
same,Kd,human FcγRIIa H131,840 nM
same,Kd,human FcγRIa [4],1.2 nM
same,Kd,human FcγRIIIa V158,10000 nM
B14,Kd,human FcγRIIa R131 [5],700 nM
B15,Kd,human FcγRIIa R131 [8],810 nM
same,Kd,human FcγRIa [9],73 nM
same,Kd,human FcγRIIb [10],41 nM
B16,Kd,human FcγRIa [6],70 nM
B17,Kd,human FcγRIa [6],3 nM
B18,Kd,human FcγRIIb [7],40 nM
B19,Kd,human FcγRIIa R131 [2],920 nM
same,Kd,human FcγRIIb [3],24 nM
same,Kd,human FcγRIIa H131,16000 nM
same,Kd,human FcγRIa [4],0.79 nM
same,Kd,human FcγRIIIa V158,36000 nM
B20,Kd,human FcγRIa [6],7 nM
B21,Kd,human FcγRIa [6],20 nM
B22,Kd,human FcγRIIb [7],100 nM
B23,Kd,human FcγRIIa R131 [5],30000 nM
B24,Kd,human FcγRIIa R131 [8],550 nM
same,Kd,human FcγRIa [9],320 nM
same,Kd,human FcγRIIb [10],31 nM
B25,binding result,mouse FcγRIV,no binding
same,binding result,mouse FcγRI,no binding
B26,binding result,mouse FcγRIV,no binding
same,binding result,mouse FcγRI,no binding
B27,binding result,mouse FcγRIV,no binding
same,binding result,mouse FcγRI,no binding
